Assay results taken from the supplement of paper PMC9170038.

System: MS2 coat protein
Experiment: apparent KD of MS2 coat protein; designed switch direction (-1 OFF switch, 1 ON switch): -1; higher = weaker reporter binding
Summary of the method: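 Designed RNA switches sharing common flanks were transcribed on Illumina chips by stalled E. coli RNA polymerase. They were titrated with SNAP-549-labelled MS2 coat protein, from 0.7 or 1.5 nM doubling to 3 µM, in Tris-HCl pH 7.5 buffer with KCl, MgCl2, BSA, DTT, tRNA and Tween-20. Titrations ran without input, with 200 uM small-molecule ligand, or with an oligonucleotide input. The apparent KD of each design is the median over its clusters, after curve-fitting of normalised cluster fluorescence.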

[1] = input ligand: microRNA oligo, concentration not stated
[2] = Eterna round: R95, input ligand: FMN 200 uM
[3] = Eterna round: R95, input ligand: microRNA oligo, concentration not stated
[4] = Eterna round: R95, input ligand: none

Sequence	apparent KD of MS2 coat protein (input ligand: FMN 200 uM)	apparent KD of MS2 coat protein (input ligand: none)	apparent KD of MS2 coat protein [1]	apparent KD of MS2 coat protein [2]	apparent KD of MS2 coat protein [3]	apparent KD of MS2 coat protein [4]
UUGACGGCAGGAUAUACAUGAGGAUCACCCAUGUAAAUUUUUCGUUUAACUUGAAUGUGUAGAAGGGCCAAACC [Ex3 #77] (Eterna round: R97, puzzle: Exclusion 3)	19.4 nM	20.4 nM				
UUGCAGUCGUCAGGAUAUAGUAUUACGGCCUUUUAUUUCUUCAUACAUGAGGAUCACCCAUGUCGCUAGAAGGGAUUAUCGAUU [salish99_ExNG2_r04_105] (Eterna round: R96, puzzle: Exclusion NG 2)	17.8 nM	22.2 nM	14.2 nM			
UUGCCUAGUGUUAGGAUAUGCGACGGGUGACCGUUGCAGAAGGAACAUGAGGAUCACCCAUGUUUAAUAAAAUC [JL-BMX4-4.44 ViennaUCT mod] (Eterna round: R97, puzzle: Brourd's mod of Exclusion 4)	35.9 nM	13.2 nM				
UUGCUCCCUUAGUACUCUACAAGUUUUUUGUUCGUUUUAACAUGAGGAUCACCCAUGUCUAGUGGAUCUGAUCGGGU [JL ViennaUCT Isreen mod 5] (puzzle: Sensor v3, turn-off variant 2)				172 nM	336 nM	178 nM
UUGGUUGUGGUAGGAUAUCCGUUGGAAACCGUCGGAGAAGGACCACAGUCACUGGGUCCUUGUCUGGUGGACUGGAAUCACCAU [pwkr exNG1 F6.15] (Eterna round: R96, puzzle: Exclusion NG 1)	153 nM	184 nM	172 nM			
UUGUACAUAGGAUAUAGUUGUUUGUACAUGAGGAUCACCCAUGUUAUGUAUGUUUUGUUUCUAGAAGGAUGUUGAU [JR_E5_Sub003] (puzzle: Exclusion 5)					47.1 nM	
UUGUUACAUGAGGAUCACCCAUGUGAGGAUAUGAGGGUUAGCUUAAAUGGGCUGACUUUCAGAAGGCACAUGAA [JR_Ex1_Sub058] (Eterna round: R97, puzzle: Exclusion 1)	327 nM	235 nM				
UUGUUAUAUGUAGGAUAUGCAUAUUAUUAUUAUGCAGAAGGACAUGAGGAUCACCCAUGUGUAUUGUUAUUAUAUAUUAUAUAU [Title] (Eterna round: R96, puzzle: Exclusion NG 1)			16.5 nM			
UUGUUAUAUGUAGGAUAUGCAUAUUAUUAUUGUGCAGAAGGACAUGAGGAUCACCCAUGUAUAUUAUUAUUAUAUAUUAUAUAU [Title] (Eterna round: R96, puzzle: Exclusion NG 1)			26.1 nM			
UUGUUAUAUGUAGGAUAUGCAUAUUGUUAUUAUGCAGAAGGACAUGAGGAUCACCCAUGUAUAUUAUUAUUAUAUAUUAUAUAU [Title] (Eterna round: R96, puzzle: Exclusion NG 1)			22.5 nM			
UUGUUAUGUGUAGGAUAUGCGUGUUAUUAUUAUGCAGAAGGACAUGAGGAUCACCCAUGUGUAUUAUUAUUAUAUAUUAUAUAU [Title] (Eterna round: R96, puzzle: Exclusion NG 1)	20 nM	19.9 nM	15.8 nM			
UUGUUGUAUGUAGGAUAUGCAUAUUAUUGUUAUGCAGAAGGACAUGAGGAUCACCCAUGUAUAUUAUUAUUAUAUGUUAUAUAU [Title] (Eterna round: R96, puzzle: Exclusion NG 1)	35.1 nM	28 nM	21 nM			
UUUAAACUUACAAUCUUCGCUGGCAUGCUUGUGCCAGCUACAUGAGGAUCACCCAUGUUUUUUGCUCGUCUUAUUCU [Usre] (puzzle: Sensor v3, turn-off variant 2)				23.5 nM		25.1 nM
UUUAAUGGAAUUAAGAUCACAUGAGGAUCACCCAUGUAUAUAUAGGAUAUCAGCUCGAUUAGAGCUGAGAAGGAUAUAUACAUA [ExNG3/6-B1] (Eterna round: R96, puzzle: Exclusion NG 3)	31.6 nM	91.6 nM	199 nM			
UUUAAUUUAAUUAAGAUCACAUGAGGAUCACCCAUGUAUAUAUAGGAUAUCAGCUCGAUUAGAGCUGAGAAGGAUAUAUACAUA [ExNG3/4-A1] (Eterna round: R96, puzzle: Exclusion NG 3)	164 nM	58.9 nM	215 nM			
UUUAAUUUUUUUUUUUUACAAGCUUUUUGCUCGUCUUAUACAUGAGGAUCACCCAUGUAAAUGGAAGAUAAAUUAUC [JMF 7] (puzzle: Sensor v3, turn-off variant 2)				16.7 nM	18.1 nM	17.3 nM
UUUAAUUUUUUUUUUUUACAAGCUUUUUGCUCGUCUUAUACAUGAGGAUCACCCAUGUAGGUGGGAGGUAAAUUAUC [JMF 79] (puzzle: Sensor v3, turn-off variant 2)				40.8 nM	116 nM	43.8 nM

Sequence	apparent KD of MS2 coat protein (input ligand: FMN 200 uM)	apparent KD of MS2 coat protein (input ligand: none)	apparent KD of MS2 coat protein [1]	apparent KD of MS2 coat protein [2]	apparent KD of MS2 coat protein [3]	apparent KD of MS2 coat protein [4]
UUUAAUUUUUUUUUUUUACAAGCUUUUUGCUCGUCUUAUACAUGAGGAUCACCCAUGUGAGUGAGGGAUAAAUUAUC [JMF 41] (puzzle: Sensor v3, turn-off variant 2)				19.4 nM	23.9 nM	16.7 nM
UUUAAUUUUUUUUUUUUACAAGCUUUUUGCUCGUCUUAUACAUGAGGAUCACCCAUGUGGAUGGAGGGUAAAUUAUC [JMF 85] (puzzle: Sensor v3, turn-off variant 2)				14.4 nM	25.6 nM	16.9 nM
UUUAAUUUUUUUUUUUUACAAGCUUUUUGCUCGUCUUAUACAUGAGGAUCACCCAUGUGGAUGGGAAAUGAAUUAUC [JMF 97] (puzzle: Sensor v3, turn-off variant 2)				18.6 nM	115 nM	19.7 nM
UUUACAAGCUAUUGAUCCCACAUGAGGAUCACCCAUGUUGCUGCCGGUGACGGUAGCAUAACAAUUGCUCGUCUUAU [JL TOV1 3.56] (Eterna round: R97, puzzle: Sensor, turn-off variant 1)	660 nM	797 nM				
UUUACAAGCUUAUGAUCCCACAUGAGGAUCACCCAUGUUGCUGCCGUGAGGUAGCUUUUAACAUAUGCUCGUCUUAU [JL TOV1 3.39] (Eterna round: R97, puzzle: Sensor, turn-off variant 1)	764 nM	838 nM				
UUUAGUCGUGACAUGGGUGACAUGAGGAUCACCCAUGUCACAAGCUUGUUGCUCGUCUUAUAAUUAACCCAUGUCAC [LRO Sensor-off var1-15 mod of Stov1-13-A1 by Brourd] (Eterna round: R97, puzzle: Sensor, turn-off variant 1)	19.3 nM	19.6 nM				
UUUAGUUCAGGAUAUGUAGAUUUUAACAUGAGGAUCACCCAUGUAGAUCCUGAAUUAACUACAGAAGGGAACAUUC [Exclusion 5: 2:c] (Eterna round: R96, puzzle: Exclusion 5)	50.8 nM	20.7 nM	15.6 nM			
UUUAGUUCAGGAUAUGUAGAUUUUAACAUGAGGAUCACCCAUGUAGAUCCUGAAUUAACUACAGAAGGGAACAUUC [Exclusion 5: 2:c] (puzzle: Exclusion 5)					20.9 nM	
UUUAUAAUUUCAAUCUUCGCCAACAAACUUACGCUGGCCACAUGAGGAUCACCCAUGUUUUUUGUUCGUUUUAUUCU [Veorenxere] (Eterna round: R96, puzzle: Sensor v3, turn-off variant 2)	25 nM	27.1 nM	62.2 nM			
UUUAUAAUUUCAAUCUUCGCCAACAAACUUACGCUGGCCACAUGAGGAUCACCCAUGUUUUUUGUUCGUUUUAUUCU [Veorenxere] (puzzle: Sensor v3, turn-off variant 2)				18.8 nM	56.4 nM	21.9 nM
UUUAUAUAGUAAGGAUAUGUAUUAUUUUUGUCAACAGAAGGUACUGACAUGAGGAUCACCCAUGUUUUAGUGUGGGCAUGUAGU [JMF's solution 99] (Eterna round: R96, puzzle: Exclusion NG 1)			177 nM			
UUUAUGCUAGGAUAUGCACCCUCGAACAUGAGGAUCACCCAUGUACAAUAAACGCAUGAAGCAGAAGGAGCUUCCA [EX5 A.20] (Eterna round: R97, puzzle: Exclusion 5)	56.4 nM	37.1 nM				
UUUAUGUCAGGAUAUGAGUAGUAGAACAAUAGUACUACUACUCAGAAGGGACAUGAGGAUCACCCAUGUGCCUC [Fiskers Ex 4 Super stable 44 mod 22] (Eterna round: R96, puzzle: Exclusion 4)	326 nM	40.4 nM	32.3 nM			
UUUAUGUCAGGAUAUGAGUAGUAGAACAAUAGUACUACUACUCAGAAGGGACAUGAGGAUCACCCAUGUGCCUC [Fiskers Ex 4 Super stable 44 mod 22] (puzzle: Exclusion 4)					33.6 nM	
UUUCAUCAUGUAGGAUAUGUGUGGCGAAGCUAUACAGAAGGACAUGAGGAUCACCCAUGUUCUUGCGUCUGCGUACAGAUGCAA [14th something] (Eterna round: R96, puzzle: Exclusion NG 1)	348 nM	43.3 nM	33.1 nM			
UUUCCCUGUGUGAGGAUAUACUUGUUUGGGUUUUUGUAGAAGGCACAUGAGGAUCACCCAUGUAUUUUGUCGUG [JR_BME4_Sub020] (puzzle: Brourd's mod of Exclusion 4)					40.9 nM	
UUUCGGUCAGGAUAUCCCGUACUACUAGCCGCGACUUACGAGGAGAAGGGACAUGAGGAUCACCCAUGUGCGCU [Colors] (Eterna round: R97, puzzle: Exclusion 4)	16.2 nM	14.7 nM				
